# ± gives the uncertainty stated by the source.
# Assay: self-splicing fitness, log relative to wild type (ln ratio); higher = more splicing; Tetrahymena group I intron in knt gene, E. coli kanamycin selection, DiMSum; sequences stand for … in CUCUCU…GGAGGGAAAAGUUAUCAGGCAUGCACCUGGUAGCUAGUCUUUAAACCAAUAGAUUGCAUCGGUUUAAAAGGCAAGACCGUCAAAUUGCGGGAAAGGGGUCAACAGCCGUUCAGUACCAAGUCUCAGGGGAAACUUUGAGAUGGCCUUGCAAAGGGUAUGGUAAUAAGCUGACGGACAUGGUCCUAACCACGCAGCCAAGUCCUAAGUCAACAGAUCUUCUGUUGAUAUGGAUGCAGUUCACAGACUAAAUGUCGGUCGGGGAAGAUGUAUUCUUCUCAUAAGAUAUAGUCGGACCUCUCCUUAAUGGGAGCUAGCGGAUGAAGUGAUGCAACACUGGAGCCGCUGGGAACUAAUUUGUAUGCGAAAGUAUAUUGAUUAGUUUUGGAGUACUCGUGGUCG
# How it was run: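 DiMSum derived fitness as the error-weighted combination of fold changes across replicates, kanamycin versus no kanamycin, normalised to wild type. E. coli BL21(DE3) held the library, which randomised all eight P1ex-region intron nucleotides within the knt kanamycin-resistance gene on pET-22b(+). Six replicate transformations grew overnight at 37°C or 30°C on LB agar with or without 25 μg/mL kanamycin, also containing 100 μg/mL carbenicillin, 50 μM IPTG and 0.2% rhamnose, and pooled colonies were amplicon-sequenced on an Illumina HiSeq 2500.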
Sequence,self-splicing fitness (ln) (30 °C),self-splicing fitness (ln) (37 °C)
AGAUAGCAAUAUUACGAACG,-1.12 ± 0.12,-0.323 ± 0.13
AGAUAGCAAUAUUACGAAGC,,-1.5 ± 0.28
AGAUAGCAAUAUUACGAGCC,-0.476 ± 0.18,-1.76 ± 0.28
AGAUAGCAAUAUUACGAGUU,-2.21 ± 0.1,-0.588 ± 0.099
AGAUAGCAAUAUUACGAUGG,-2.2 ± 0.14,-3.07 ± 0.22
AGAUAGCAAUAUUACGAUUU,-0.348 ± 0.084,0.527 ± 0.11
AGAUAGCAAUAUUACGCAAU,-1.14 ± 0.1,-1.34 ± 0.15
AGAUAGCAAUAUUACGCAGG,-1.91 ± 0.17,-0.155 ± 0.19
AGAUAGCAAUAUUACGCCCC,-1.27 ± 0.26,-0.202 ± 0.4
AGAUAGCAAUAUUACGCCGA,-1.89 ± 0.3,-0.973 ± 0.3
AGAUAGCAAUAUUACGCCUG,-1.13 ± 0.12,-0.496 ± 0.13
AGAUAGCAAUAUUACGCGGG,-1.66 ± 0.13,-1.68 ± 0.15
AGAUAGCAAUAUUACGCUAA,-1.46 ± 0.15,-0.455 ± 0.15
AGAUAGCAAUAUUACGCUAG,-3.21 ± 0.4,-2.24 ± 0.42
AGAUAGCAAUAUUACGCUGC,,-1.26 ± 0.34
AGAUAGCAAUAUUACGGCAA,0.243 ± 0.16,-0.127 ± 0.19
AGAUAGCAAUAUUACGGCAC,-1.52 ± 0.16,-0.639 ± 0.23
AGAUAGCAAUAUUACGGCCC,-0.127 ± 0.19,-0.606 ± 0.23
AGAUAGCAAUAUUACGGCGU,-0.0254 ± 0.091,0.663 ± 0.1
AGAUAGCAAUAUUACGGCUU,-0.346 ± 0.11,-0.141 ± 0.097
AGAUAGCAAUAUUACGGGUG,-2.83 ± 0.2,-1.88 ± 0.21
AGAUAGCAAUAUUACGGUGG,-1.66 ± 0.12,-2.23 ± 0.16
AGAUAGCAAUAUUACGUCCC,-1.36 ± 0.2,0.133 ± 0.32
AGAUAGCAAUAUUACGUCGA,-0.721 ± 0.13,0.375 ± 0.13
AGAUAGCAAUAUUACGUCGC,-3.24 ± 0.39,-1.21 ± 0.23

Sequence,self-splicing fitness (ln) (30 °C),self-splicing fitness (ln) (37 °C)
AGAUAGCAAUAUUACGUCUU,-2.52 ± 0.14,-2.07 ± 0.17
AGAUAGCAAUAUUACGUUAG,-4.56 ± 0.31,-0.345 ± 0.15
AGAUAGCAAUAUUACGUUCA,-0.78 ± 0.13,-0.5 ± 0.15
AGAUAGCAAUAUUACGUUUC,-3.56 ± 0.29,
AGCAAGCAAUAUUACGACAU,-0.211 ± 0.011,0.0321 ± 0.032
AGCAAGCAAUAUUACGAGAG,-3.11 ± 0.2,-2.42 ± 0.25
AGCAAGCAAUAUUACGAGGA,-2.86 ± 0.17,-2.29 ± 0.2
AGCAAGCAAUAUUACGAUGU,-1.92 ± 0.068,-0.392 ± 0.076
AGCAAGCAAUAUUACGAUUG,-4.19 ± 0.17,-1.91 ± 0.11
AGCAAGCAAUAUUACGCCUU,-1.24 ± 0.1,0.351 ± 0.11
AGCAAGCAAUAUUACGCGGU,-3.33 ± 0.16,-1.66 ± 0.17
AGCAAGCAAUAUUACGGCCA,-0.0326 ± 0.088,-0.0437 ± 0.12
AGCAAGCAAUAUUACGGCGU,-0.229 ± 0.078,0.0744 ± 0.1
AGCAAGCAAUAUUACGGGCA,-0.263 ± 0.071,0.111 ± 0.084
AGCAAGCAAUAUUACGGUGG,-2.65 ± 0.1,-2.32 ± 0.15
AGCAAGCAAUAUUACGUCAA,-1.76 ± 0.13,-1.13 ± 0.11
AGCAAGCAAUAUUACGUCCC,-0.545 ± 0.1,-0.16 ± 0.13
AGCAAGCAAUAUUACGUCUG,-2.22 ± 0.09,-1.15 ± 0.095
AGCAAGCAAUAUUACGUGAA,-2.21 ± 0.068,-1.95 ± 0.11
AGCAAGCAAUAUUACGUGGC,-2.83 ± 0.15,-3.3 ± 0.21
AGCAAGCAAUAUUACGUGUU,-3.17 ± 0.18,-2.64 ± 0.17
AGCAAGCAAUAUUACGUUCG,-2.66 ± 0.084,-1.44 ± 0.09
AGCCAGCAAUAUUACGAAAU,-3.02 ± 0.11,-2.17 ± 0.13
AGCCAGCAAUAUUACGACCG,-3.83 ± 0.32,-1.89 ± 0.24
